Experimental data published in publication PMC8132391.

Experiments:
[1] = molecular target: all2909, COG4337 protein of Anabaena sp. PCC 7120, without N-terminal leader (Anabaena sp. PCC 7120) (UniProt Q8YT18); experiment: SEC-MALS; Superdex 200 increase 10/300 GL, 293 K, 20 mM Tris-HCl pH 8.0, 100 mM NaCl; Bn86287 3.7 mg/ml and all2909 4.9 mg/ml, 30 ul injected
[2] = molecular target: Bn86287 (104-607 amino acids), COG4337 protein of Bigelowiella natans (Bigelowiella natans); experiment: as above

Substance | stoichiometry N [1] | stoichiometry N [2]
all2909, COG4337 protein of Anabaena sp. PCC 7120, without N-terminal leader (from UniProt Q8YT18 31-205) (enzyme) | 4 | 
Bn86287 (104-607 amino acids), COG4337 protein of Bigelowiella natans (enzyme) |  | 2
